B1: P1B4 (scFv format) (scFv, part only; not given: linker, domain order, tags, V domains shown, not shown: another chain or arm of the molecule; small tags and cut ends)
VH: QVQLVQSGAEVKKPGSSVKVSCKASGGVFSRYALSWVRQAPGQGLEWMGGIIPMLGFANYAQKFQGRVTITADESTSTAYMELSSLRSEDTAVYYCATLDFGALDYWGQGTLVTVSS
VL: EIVLTQSPGTLSLSPGERATLSCRASQSVPNEQLAWYQQKPGQAPRLLIYDASSRATGIPDRFSGSGSGTDFTLTISRLEPEDFAVYYCQQYGSPPLTFGQGTKVEIK
B2: P1A5 (scFv format) (scFv, part only; not given: linker, domain order, tags, V domains shown, not shown: another chain or arm of the molecule; small tags and cut ends)
VH: QVQLVQSGAEVKKPGSSVKVSCKASGGVFSRYALSWVRQAPGQGLEWMGGIIPMLGFANYAQKFQGRVTITADESTSTAYMELSSLRSEDTAVYYCATLDFGALDYWGQGTLVTVSS
VL: EIVLTQSPGTLSLSPGERATLSCRASQAVDSSDLAWYQQKPGQAPRLLIYDAYTRPSGIPDRFSGSGSGTDFTLTISRLEPEDFAVYYCQQYGSSPLTFGGGTKLEIK
B3: P3E10 (scFv format) (scFv, part only; not given: linker, domain order, tags, V domains shown, not shown: another chain or arm of the molecule; small tags and cut ends)
VH: QVQLVQSGAEVKKPGSSVKVSCKASGGTFSSYAIQWVRQAPGQGLEWMGGIVGSWGLANYAQKFQGRVTITTDKSTSTAYMELSSLRSEDTAVYYCATSAFGELASWGQGTLVTVSS
VL: EIVLTQSPGTLSLSPGERATLSCRASQSVPSSQLAWYQQKPGQAPRLLIYDASSRATGIPDRFSGSGSGTDFTLTISRLEPEDFAVYYCQQYGSSPLTFGQGTKVEIK
B4: P9F1 (scFv format) (scFv, part only; not given: linker, domain order, tags, V domains shown, not shown: another chain or arm of the molecule; small tags and cut ends)
VH: EVQLLESGGGLVQPGGSLRLSCAASGFIFSSFAMSWVRQAPGKGLEWVSDISGSGASTYYADSVKGRFTISRDNSKNTLYLQMNSLRAEDTAVYYCASASGGSGSYWPYMDPWGQGTLVTVSS
VL: QSVLTQPPSASGTPGQRVTISCSGSGSNIGSNYVYWYQQLPGTAPKLLIYRNNQRPSGVPDRFSGSKSGTSASLAISGLRSEDEADYYCAAWDGSLSRPVFGTGTKLTVL
B5: P5F7 (scFv format) (scFv, from a related filing, part only)
scFv: EVQLLESGGGLVQPGGSLRLSCAASGFTFSSYAMNWVRQAPGKGLEWVSSISGGGRSTYYADSVKGRFTISRDNSKNTLYLQMNSLRAEDTAVYYCARDLSPSDVGWGYGFDIWGQGTLVTVSSGGGGSGGGGSGGGGSEIVLTQSPATLSLSPGERATLSCRASQSVSSNLAWYQQKPGQAPRLLIYDTFTRATGIPARFSGSGSGTDFTLTISRLEPEDFAVYYCQQYGSSPPTFGQGTRLEIK
B6: P7H3 (scFv format) (scFv, part only; not given: linker, domain order, tags, V domains shown, not shown: another chain or arm of the molecule; small tags and cut ends)
VH: EVQLLESGGGLVQPGGSLRLSCAASGFTFSSYAMHWVRQAPGKGLEWVSAISGSGGSTYYADSVKGRFTISRDNSKNTLYLQMNSLRAEDTAVYYCARGTRWWWGDAFDHWGQGTLVTVSS
VL: QSVLTQPPSVSVAPGKTARITCGGNNIGSKSVHWYQQKPGQAPVLVIYYDSDRPSGIPERFSGSNSGNTATLTISRVEAGDEADYYCQVWDSSTAWVFGGGTKLTVL
B7: P4H11 (scFv format) (scFv, part only; not given: linker, domain order, tags, V domains shown, not shown: another chain or arm of the molecule; small tags and cut ends)
VH: EVQLLESGGGLVQPGGSLRLSCAASGFTFSSYAMNWVRQAPGKGLEWVSSISGGGRSTYYADSVKGRFTISRDNSKNTLYLQMNSLRAEDTAVYYCARDLSPSDVGWGYGFDIWGQGTLVTVSS
VL: EIVLTQSPGTLSLSPGERATLSCRASQSVSNTYLAWYQQKPGQAPRLLIYDTSSRATGIPDRFSGSGSGTDFTLTISRLEPEDFAVYYCQQYGSSLTFGQGTKVEIK
B8: P4C7 (scFv format) (scFv, part only; not given: linker, domain order, tags, V domains shown, not shown: another chain or arm of the molecule; small tags and cut ends)
VH: QVQLVQSGAEVKKPGSSVKVSCKASGGTFSSYTISWVRQAPGQGLEWMGGIIPAFGIANYAQKFQGRVTITADKSTSTAYMELSSLRSEDTAVYYCAKGGSYSLDYFDIWGQGTLVTVSS
VL: EIVLTQSPGTLSLSPGERATLSCRASQYVSASLLAWYQQKPGQAPRLLIYGASTRATGIPDRFSGSGSGTDFTLTISRLEPEDFAVYYCQQYARSSTFGQGTKVEIK
B9: P5A3 (scFv format) (scFv, part only; not given: linker, domain order, tags, V domains shown, not shown: another chain or arm of the molecule; small tags and cut ends)
VH: QVQLVQSGAEVKKPGSSVKVSCKASGGTFSSYYIGWVRQAPGQGLEWMGGIIPWFGTANYAQKFQGRVTITADKSTNTAYMELSSLRSEDTAVYYCAADHHDSPSGYTSGGFDVWGQGTLVTVSS
VL: QSALTQPASVSGSPGQSITISCTGTSSDVGGYNYVSWYQQHPGKAPKLMIYEVSKRPSGVPDRFSGSKSGNTASLTVSGLQAEDEADYYCSSYAGSNTVVFGGGTKLTVL

Usually Kd stands for the free concentration of one partner at which half of the binding sites on the other are occupied at equilibrium, for simple one-to-one binding. The low end stands for tighter binding, the high end for weaker binding. A word on the koff: it is a measure of how fast the partners let go of each other. Low readings indicate a long-lived complex, high ones a short-lived complex. A word on the kon: it is the rate constant with which the complex forms. Higher therefore signals fast association.

The target of this assay is human FLT3 (hFLT3) (human) (UniProt P36888). The assay is described as follows: SPR, Table 6, scFv format; set-up and antigen species not described.
Chain of human FLT3 (hFLT3) (human) (P36888 27-543 limits assumed): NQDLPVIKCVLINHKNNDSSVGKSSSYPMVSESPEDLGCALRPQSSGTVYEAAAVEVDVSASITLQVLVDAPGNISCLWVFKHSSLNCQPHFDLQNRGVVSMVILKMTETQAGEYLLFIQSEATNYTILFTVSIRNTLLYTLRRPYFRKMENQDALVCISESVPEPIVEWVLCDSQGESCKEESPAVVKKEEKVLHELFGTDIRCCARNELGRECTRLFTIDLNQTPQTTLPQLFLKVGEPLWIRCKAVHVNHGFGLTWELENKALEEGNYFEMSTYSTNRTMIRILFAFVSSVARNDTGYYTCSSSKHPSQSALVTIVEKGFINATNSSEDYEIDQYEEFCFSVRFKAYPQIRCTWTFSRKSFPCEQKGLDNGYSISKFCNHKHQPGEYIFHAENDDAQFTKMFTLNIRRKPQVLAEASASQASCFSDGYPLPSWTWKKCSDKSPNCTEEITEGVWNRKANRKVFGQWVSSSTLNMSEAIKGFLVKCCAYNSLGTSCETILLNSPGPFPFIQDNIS
For the molecule B1, the Kd was determined as 27.3 nM, the koff worked out at 0.00327 s⁻¹, the on-rate constant (kon) worked out at 120000 M⁻¹ s⁻¹ and the t1/2 worked out at 3.5 min.

B2 had a Kd of 1.1 nM, a koff of 0.000292 s⁻¹, a kon of 259000 M⁻¹ s⁻¹ and a t1/2 of 40 min.

In the case of B3, the Kd is 65.1 nM, the koff amounted to 0.0112 s⁻¹, the kon was 172000 M⁻¹ s⁻¹ and the t1/2 was found to be 1 min.

Molecule B4 returned a Kd of 126 nM, an off-rate (koff) of 0.0286 s⁻¹, a kon of 226000 M⁻¹ s⁻¹ and a t1/2 of 0.4 min.

Consider B5, for which the Kd was determined as 1 nM, the koff amounted to 0.000197 s⁻¹, the kon turned out to be 189000 M⁻¹ s⁻¹ and the t1/2 was 59 min.

On to B6, for which the Kd was determined as 9.1 nM, the koff stood at 0.00187 s⁻¹, the kon stood at 205000 M⁻¹ s⁻¹ and the t1/2 is 6.2 min.

In turn, B7 gave a Kd of 58.3 nM, a koff of 0.00933 s⁻¹, a kon of 160000 M⁻¹ s⁻¹ and a t1/2 of 1 min.

Turning to B8, the Kd is 13.6 nM, the koff was determined as 0.00164 s⁻¹, the kon stood at 121000 M⁻¹ s⁻¹ and the t1/2 stood at 7 min.

As for B9, the Kd amounted to 216 nM, the koff came out at 0.0175 s⁻¹, the on-rate constant (kon) is 81000 M⁻¹ s⁻¹ and the t1/2 amounted to 0.7 min.

(Values after patent publication US20230059489A1.)
